This is an account of results in PMC6019379, “RecA-like domain 2 of DNA-dependent ATPase A domain, a SWI2/SNF2 protein, mediates conformational integrity and ATP hydrolysis” (Bioscience Reports, 2018).

What all share (assay): intrinsic tryptophan fluorescence titration; no ATP; Fluorescence titration (ex 295 nm, em 340 nm), one-site saturation fit; buffer, salt, pH and temperature not given in the material. Wild-type ADAAD Kd values are cited from ref 24 and not listed
Conditions in all cases: protein: recombinant; tags: His (Ni-NTA, pET-14b); hairpin

One series deals with T1, ADAAD R595H (Bos taurus (bovine), UniProt Q9TTA5 221-940, R815H).
T1 sequence: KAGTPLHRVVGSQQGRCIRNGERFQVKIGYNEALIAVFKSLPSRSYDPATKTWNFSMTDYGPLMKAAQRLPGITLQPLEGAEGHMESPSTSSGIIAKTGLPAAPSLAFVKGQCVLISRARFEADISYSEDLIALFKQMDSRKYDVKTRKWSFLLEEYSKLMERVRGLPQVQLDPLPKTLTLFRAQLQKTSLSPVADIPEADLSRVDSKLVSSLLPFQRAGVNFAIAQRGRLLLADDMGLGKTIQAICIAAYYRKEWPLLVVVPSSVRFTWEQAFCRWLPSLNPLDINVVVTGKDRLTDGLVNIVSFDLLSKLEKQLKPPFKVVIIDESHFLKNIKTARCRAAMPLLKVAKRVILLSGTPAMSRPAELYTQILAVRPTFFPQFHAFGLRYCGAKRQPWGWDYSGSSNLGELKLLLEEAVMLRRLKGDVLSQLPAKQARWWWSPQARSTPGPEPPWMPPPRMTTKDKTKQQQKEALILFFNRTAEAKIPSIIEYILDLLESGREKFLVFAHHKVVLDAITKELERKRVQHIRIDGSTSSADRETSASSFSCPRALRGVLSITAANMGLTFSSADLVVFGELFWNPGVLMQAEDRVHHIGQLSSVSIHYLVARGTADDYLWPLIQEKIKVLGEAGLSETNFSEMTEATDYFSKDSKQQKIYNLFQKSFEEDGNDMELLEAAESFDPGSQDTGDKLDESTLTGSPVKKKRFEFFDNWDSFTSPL

A further series deals with T2, ADAAD H594A (Bos taurus (bovine), UniProt Q9TTA5 221-940, H814A).
T2 sequence: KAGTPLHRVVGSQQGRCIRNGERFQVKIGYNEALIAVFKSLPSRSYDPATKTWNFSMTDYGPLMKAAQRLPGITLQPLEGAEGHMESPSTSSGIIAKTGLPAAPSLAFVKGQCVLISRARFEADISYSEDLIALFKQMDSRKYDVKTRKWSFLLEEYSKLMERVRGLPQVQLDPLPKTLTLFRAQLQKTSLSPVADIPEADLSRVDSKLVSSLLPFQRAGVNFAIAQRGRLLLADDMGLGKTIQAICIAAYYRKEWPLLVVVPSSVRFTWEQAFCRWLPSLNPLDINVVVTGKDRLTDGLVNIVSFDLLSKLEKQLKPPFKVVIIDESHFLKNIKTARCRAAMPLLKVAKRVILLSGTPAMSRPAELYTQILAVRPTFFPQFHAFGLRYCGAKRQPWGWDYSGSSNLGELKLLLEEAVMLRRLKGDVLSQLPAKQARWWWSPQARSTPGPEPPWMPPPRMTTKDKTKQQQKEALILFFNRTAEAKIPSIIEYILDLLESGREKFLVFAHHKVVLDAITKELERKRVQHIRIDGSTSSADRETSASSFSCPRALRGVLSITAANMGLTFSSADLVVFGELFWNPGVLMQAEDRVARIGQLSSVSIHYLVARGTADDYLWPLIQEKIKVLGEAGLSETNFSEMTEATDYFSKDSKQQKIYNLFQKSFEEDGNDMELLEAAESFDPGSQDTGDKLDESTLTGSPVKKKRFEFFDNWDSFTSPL

The target of another series is T3, ADAAD T560A (Bos taurus (bovine), UniProt Q9TTA5 221-940, T780A).
T3 sequence: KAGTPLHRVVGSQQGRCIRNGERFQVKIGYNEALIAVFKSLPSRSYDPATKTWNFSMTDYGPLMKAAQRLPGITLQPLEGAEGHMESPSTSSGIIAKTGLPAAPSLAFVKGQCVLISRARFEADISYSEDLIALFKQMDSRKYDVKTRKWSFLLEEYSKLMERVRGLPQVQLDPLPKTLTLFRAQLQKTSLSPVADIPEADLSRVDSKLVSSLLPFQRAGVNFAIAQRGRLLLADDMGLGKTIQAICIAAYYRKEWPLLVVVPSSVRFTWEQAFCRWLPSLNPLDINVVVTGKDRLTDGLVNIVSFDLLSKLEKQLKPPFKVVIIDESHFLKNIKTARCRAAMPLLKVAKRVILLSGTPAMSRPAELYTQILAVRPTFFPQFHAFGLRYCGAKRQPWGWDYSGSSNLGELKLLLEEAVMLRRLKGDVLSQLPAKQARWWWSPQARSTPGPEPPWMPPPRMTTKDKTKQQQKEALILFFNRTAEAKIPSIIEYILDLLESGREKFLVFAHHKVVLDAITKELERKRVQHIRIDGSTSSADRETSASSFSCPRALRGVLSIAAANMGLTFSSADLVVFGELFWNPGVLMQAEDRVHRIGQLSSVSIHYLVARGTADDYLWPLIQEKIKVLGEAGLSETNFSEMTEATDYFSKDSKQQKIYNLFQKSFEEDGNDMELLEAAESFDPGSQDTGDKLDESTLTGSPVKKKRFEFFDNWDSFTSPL

What is called Kd is a measure of binding affinity in units of concentration. GCGCAATTGCGCTCGACGATTTTTTAGCGCAATTGCGC (structured_DNA) [slDNA (stem-loop DNA)]: the Kd with ADAAD R595H turned out to be 24.3 ± 6.1 nM; with ADAAD H594A, 10.9 ± 2.6 nM; in the series with ADAAD T560A, 6.8 ± 0.6 nM.
